{"source": "patent US20220229068A1", "about": "“DETECTION OF PROTEIN TO PROTEIN INTERACTIONS” (THE GOVERNING COUNCIL OF THE UNIVERSITY OF TORONTO, priority 2019, published 2022)", "binders": {"B1": {"name": "BAD (bait, IN format) (protein, human, UniProt Q92934 1-168, looked up)", "chain": "MFQIPEFEPSEQEDSSSAERGLGPSPAGDGPSGSGKHHRQAPGLLWDASHQQEQPTSSSHHGGAGAVEIRSRHSSYPAGTEDDEGMGEEPSPFRGRSRSAPPNLWAAQRYGRELRRMSDEFVDSFKKGLPRPKSAGTATQMRQSSSWTRVFQSWWDRNLGRGSSAPSQ"}, "B2": {"name": "JUNB (bait, IN format) (protein, human, UniProt P17275 1-347, looked up)", "chain": "MCTKMEQPFYHDDSYTATGYGRAPGGLSLHDYKLLKPSLAVNLADPYRSLKAPGARGPGPEGGGGGSYFSGQGSDTGASLKLASSELERLIVPNSNGVITTTPTPPGQYFYPRGGGSGGGAGGAGGGVTEEQEGFADGFVKALDDLHKMNHVTPPNVSLGATGGPPAGPGGVYAGPEPPPVYTNLSSYSPASASSGGAGAAVGTGSSYPTTTISYLPHAPPFAGGHPAQLGLGRGASTFKEEPQTVPEARSRDATPPVSPINMEDQERIKVERKRLRNRLAATKCRKRKLERIARLEDKVKTLKAENAGLSSTAGLLREQVAQLKQKVMTHVSNGCQLLLGVKGHAF"}, "B3": {"name": "NCBP1 (bait, IN format) (protein, human, UniProt Q09161 1-790, looked up)", "chain": "MSRRRHSDENDGGQPHKRRKTSDANETEDHLESLICKVGEKSACSLESNLEGLAGVLEADLPNYKSKILRLLCTVARLLPEKLTIYTTLVGLLNARNYNFGGEFVEAMIRQLKESLKANNYNEAVYLVRFLSDLVNCHVIAAPSMVAMFENFVSVTQEEDVPQVRRDWYVYAFLSSLPWVGKELYEKKDAEMDRIFANTESYLKRRQKTHVPMLQVWTADKPHPQEEYLDCLWAQIQKLKKDRWQERHILRPYLAFDSILCEALQHNLPPFTPPPHTEDSVYPMPRVIFRMFDYTDDPEGPVMPGSHSVERFVIEENLHCIIKSHWKERKTCAAQLVSYPGKNKIPLNYHIVEVIFAELFQLPAPPHIDVMYTTLLIELCKLQPGSLPQVLAQATEMLYMRLDTMNTTCVDRFINWFSHHLSNFQFRWSWEDWSDCLSQDPESPKPKFVREVLEKCMRLSYHQRILDIVPPTFSALCPANPTCIYKYGDESSNSLPGHSVALCLAVAFKSKATNDEIFSILKDVPNPNQDDDDDEGFSFNPLKIEVFVQTLLHLAAKSFSHSFSALAKFHEVFKTLAESDEGKLHVLRVMFEVWRNHPQMIAVLVDKMIRTQIVDCAAVANWIFSSELSRDFTRLFVWEILHSTIRKMNKHVLKIQKELEEAKEKLARQHKRRSDDDDRSSDRKDGVLEEQIERLQEKVESAQSEQKNLFLVIFQRFIMILTEHLVRCETDGTSVLTPWYKNCIERLQQIFLQHHQIIQQYMVTLENLLFTAELDPHILAVFQQFCALQA"}, "B4": {"name": "ATF3 (bait, IN format) (protein, human, UniProt P18847 1-181, looked up)", "chain": "MMLQHPGQVSASEVSASAIVPCLSPPGSLVFEDFANLTPFVKEELRFAIQNKHLCHRMSSALESVTVSDRPLGVSITKAEVAPEEDERKKRRRERNKIAAAKCRNKKKEKTECLQKESEKLESVNAELKAQIEELKNEKQHLIYMLNLHRPTCIVRAQNGRTPEDERNLFIQQIKEGTLQS"}, "B5": {"name": "DR1 (bait, IN format) (protein, human, UniProt Q01658 1-176, looked up)", "chain": "MASSSGNDDDLTIPRAAINKMIKETLPNVRVANDARELVVNCCTEFIHLISSEANEICNKSEKKTISPEHVIQALESLGFGSYISEVKEVLQECKTVALKRRKASSRLENLGIPEEELLRQQQELFAKARQQQAELAQQEWLQMQQAAQQAQLAAASASASNQAGSSQDEEDDDDI"}}, "assay_in_all_cases": "SIMPL ELISA, bait-IN/prey-CIC", "key": {"[1]": {"target": "BCL2L1 (prey, CIC format) (human) (UniProt Q07817)", "sequence (Q07817 whole entry)": "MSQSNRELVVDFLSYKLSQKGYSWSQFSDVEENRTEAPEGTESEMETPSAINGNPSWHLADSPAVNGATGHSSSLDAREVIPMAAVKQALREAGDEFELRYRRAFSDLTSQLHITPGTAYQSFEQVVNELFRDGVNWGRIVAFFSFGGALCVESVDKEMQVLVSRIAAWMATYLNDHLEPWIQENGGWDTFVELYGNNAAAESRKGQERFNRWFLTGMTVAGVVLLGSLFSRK"}, "[2]": {"target": "T1, DCP1A (prey, CIC format) (human) (UniProt Q9NPI6)", "T1 sequence (looked up)": "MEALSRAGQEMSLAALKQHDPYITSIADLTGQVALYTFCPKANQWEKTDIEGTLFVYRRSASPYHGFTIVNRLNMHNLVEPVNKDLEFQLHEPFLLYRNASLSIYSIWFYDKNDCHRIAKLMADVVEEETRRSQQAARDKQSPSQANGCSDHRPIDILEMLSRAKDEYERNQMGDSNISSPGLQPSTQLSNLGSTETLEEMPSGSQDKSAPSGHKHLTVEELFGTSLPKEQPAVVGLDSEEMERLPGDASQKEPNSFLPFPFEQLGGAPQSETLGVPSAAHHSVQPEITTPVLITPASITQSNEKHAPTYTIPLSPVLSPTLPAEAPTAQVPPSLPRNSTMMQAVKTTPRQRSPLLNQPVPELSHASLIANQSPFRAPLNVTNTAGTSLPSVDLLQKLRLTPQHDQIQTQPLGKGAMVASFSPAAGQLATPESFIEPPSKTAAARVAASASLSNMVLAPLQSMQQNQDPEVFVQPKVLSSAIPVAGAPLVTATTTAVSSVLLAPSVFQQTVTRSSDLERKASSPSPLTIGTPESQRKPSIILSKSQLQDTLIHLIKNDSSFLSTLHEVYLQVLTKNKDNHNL"}, "[3]": {"target": "T2, BATF (prey, CIC format) (human) (UniProt Q16520)", "T2 sequence (looked up)": "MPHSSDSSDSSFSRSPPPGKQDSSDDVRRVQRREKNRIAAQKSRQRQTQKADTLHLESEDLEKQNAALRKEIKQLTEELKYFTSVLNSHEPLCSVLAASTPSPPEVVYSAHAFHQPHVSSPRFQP"}, "[4]": {"target": "T3, PTPN11 (prey, CIC format) (human) (UniProt Q06124)", "T3 sequence (looked up)": "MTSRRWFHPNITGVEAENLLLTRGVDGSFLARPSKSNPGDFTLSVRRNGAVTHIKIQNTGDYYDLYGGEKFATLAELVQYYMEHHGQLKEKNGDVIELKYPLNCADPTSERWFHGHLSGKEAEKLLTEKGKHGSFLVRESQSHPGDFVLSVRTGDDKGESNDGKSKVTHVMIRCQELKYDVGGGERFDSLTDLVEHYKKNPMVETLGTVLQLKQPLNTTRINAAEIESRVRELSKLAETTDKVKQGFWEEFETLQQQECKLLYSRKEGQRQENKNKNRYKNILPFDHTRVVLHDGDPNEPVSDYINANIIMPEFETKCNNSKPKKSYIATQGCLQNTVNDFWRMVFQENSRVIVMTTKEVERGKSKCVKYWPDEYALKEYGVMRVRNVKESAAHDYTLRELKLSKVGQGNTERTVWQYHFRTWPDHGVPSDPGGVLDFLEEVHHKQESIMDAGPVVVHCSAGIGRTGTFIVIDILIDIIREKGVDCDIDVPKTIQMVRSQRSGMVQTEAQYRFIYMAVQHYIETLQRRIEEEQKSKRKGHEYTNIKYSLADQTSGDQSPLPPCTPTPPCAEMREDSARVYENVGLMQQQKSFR"}, "[5]": {"target": "T4, NCBP2 (prey, CIC format) (human) (UniProt P52298)", "T4 sequence (looked up)": "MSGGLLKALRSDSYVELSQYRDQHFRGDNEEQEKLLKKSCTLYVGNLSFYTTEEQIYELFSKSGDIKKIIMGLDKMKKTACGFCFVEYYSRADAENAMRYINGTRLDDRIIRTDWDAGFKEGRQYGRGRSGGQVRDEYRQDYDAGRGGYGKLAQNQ"}, "[6]": {"target": "T5, S100B (prey, CIC format) (human) (UniProt P04271)", "T5 sequence (looked up)": "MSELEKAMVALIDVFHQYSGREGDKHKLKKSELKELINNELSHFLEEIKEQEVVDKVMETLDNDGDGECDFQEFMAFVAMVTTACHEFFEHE"}, "[7]": {"target": "DDIT3 (prey, CIC format) (human) (UniProt P35638)", "sequence (P35638 whole entry)": "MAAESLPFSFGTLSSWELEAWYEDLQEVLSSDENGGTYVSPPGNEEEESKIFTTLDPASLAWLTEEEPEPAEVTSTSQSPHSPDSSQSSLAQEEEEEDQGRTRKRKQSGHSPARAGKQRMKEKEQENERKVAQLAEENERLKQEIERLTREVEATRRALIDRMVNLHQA"}, "[8]": {"target": "LMNB1 (prey, CIC format) (human) (UniProt P20700)", "sequence (P20700 whole entry)": "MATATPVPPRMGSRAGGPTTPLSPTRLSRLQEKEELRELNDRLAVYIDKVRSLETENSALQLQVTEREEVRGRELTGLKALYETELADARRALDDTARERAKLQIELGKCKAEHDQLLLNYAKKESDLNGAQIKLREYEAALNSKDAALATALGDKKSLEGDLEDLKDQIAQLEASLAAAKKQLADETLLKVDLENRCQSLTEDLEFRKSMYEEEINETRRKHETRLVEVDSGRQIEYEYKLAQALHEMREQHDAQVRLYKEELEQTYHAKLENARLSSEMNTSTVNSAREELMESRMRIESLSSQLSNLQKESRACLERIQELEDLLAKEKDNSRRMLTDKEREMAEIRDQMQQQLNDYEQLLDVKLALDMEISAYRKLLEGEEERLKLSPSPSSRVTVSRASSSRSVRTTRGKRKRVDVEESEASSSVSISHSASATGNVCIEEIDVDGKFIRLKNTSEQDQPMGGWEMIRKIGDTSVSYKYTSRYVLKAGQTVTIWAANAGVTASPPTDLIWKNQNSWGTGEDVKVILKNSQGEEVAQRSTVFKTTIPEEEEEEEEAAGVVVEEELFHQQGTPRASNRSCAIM"}, "[9]": {"target": "T6, DRAP1 (prey, CIC format) (human) (UniProt Q14919)", "T6 sequence (looked up)": "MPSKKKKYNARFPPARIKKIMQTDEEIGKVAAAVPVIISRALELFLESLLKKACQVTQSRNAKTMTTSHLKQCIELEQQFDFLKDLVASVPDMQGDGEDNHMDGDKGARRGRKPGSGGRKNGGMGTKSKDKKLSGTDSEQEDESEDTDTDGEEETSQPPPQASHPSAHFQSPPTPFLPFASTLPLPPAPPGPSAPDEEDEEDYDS"}, "[10]": {"target": "T7, NTF4 (prey, CIC format) (human) (UniProt P34130)", "T7 sequence (looked up)": "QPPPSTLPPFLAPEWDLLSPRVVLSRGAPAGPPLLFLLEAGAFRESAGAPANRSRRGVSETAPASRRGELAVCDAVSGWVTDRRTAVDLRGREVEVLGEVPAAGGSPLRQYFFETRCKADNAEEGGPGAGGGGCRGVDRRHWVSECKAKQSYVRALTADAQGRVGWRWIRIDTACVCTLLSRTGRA"}}}
{"binder": "B1", "values": [{"measurement": "PLU mean", "setting": "[1]", "result": 1.85}, {"measurement": "PLU mean", "setting": "[2]", "result": 0.499}]}
{"binder": "B2", "values": [{"measurement": "PLU mean", "setting": "[3]", "result": 2.04}, {"measurement": "PLU mean", "setting": "[4]", "result": 0.345}]}
{"binder": "B3", "values": [{"measurement": "PLU mean", "setting": "[5]", "result": 2.15}, {"measurement": "PLU mean", "setting": "[6]", "result": 0.217}]}
{"binder": "B4", "values": [{"measurement": "PLU mean", "setting": "[7]", "result": 1.64}, {"measurement": "PLU mean", "setting": "[8]", "result": 0.134}]}
{"binder": "B5", "values": [{"measurement": "PLU mean", "setting": "[9]", "result": 3.97}, {"measurement": "PLU mean", "setting": "[10]", "result": 0.0529}]}
